What was measured:
[1] = system: T1, CGPLGLAGGERDGC (MMP9 substrate) peptide cross-linker as presented in MMP9-NANs
T1 sequence: CGPLGLAGGERDGC

[2] = system: T2, CGFLGC (cathepsin B substrate) peptide cross-linker as presented in CathB-NANs
T2 sequence: CGFLGC

Substance	dye release from pep-NAN (fluorescence assay) [1]	dye release from pep-NAN (fluorescence assay) [2]	time to comparable fluorescence change, relative to MMP9-NAN degradation by MMP9 [2]	dye release from pep-NAN at pH 5 (fluorescence monitoring) [1]	dye release from pep-NAN at pH 7 (fluorescence assay) [1]
cathepsin B	Cathepsin B activity on MMP9-NANs was also evaluated, in which no fluorescence change was observed	MMP9-NANs and CathB-NANs released their dye when treated with their intended enzyme targets, MMP9 and cathepsin B, respectively	it takes ˜20× as long to see comparable fluorescence changes in solution when cathepsin B is added to a solution of CathB-NANs as compared to MMP9-NAN degradation by MMP9		
MMP9 enzyme (matrix metalloproteinase 9)	MMP9-NANs and CathB-NANs released their dye when treated with their intended enzyme targets, MMP9 and cathepsin B, respectively			Exposure of MMP9-NANs to cathepsin B and MMP9 at pH 5 resulted in no observable change in fluorescence	
MMP1					The results of these experiments indicated that the MMP9-NAN is specific to the MMP9 enzyme
MMP2					The results of these experiments indicated that the MMP9-NAN is specific to the MMP9 enzyme
